The record followed here is patent US20240190983A1 (JULIUS MAXIMILIANS UNIVERSIT T W RZBURG, published 2024).

Where a chain is given by its changes, count along the chain named. Names and notes keep the numbering of the source.

First the molecules themselves.
T1: Human TNFR2 (human, UniProt P20333 23-461)
T1 construct: On cells: HeLa-TNFR2, HT1080-Bcl2-TNFR2, transiently transfected HEK293; endogenous on Kym-1 cells; also called huTNFR2; TNFRSF1B
T1 sequence: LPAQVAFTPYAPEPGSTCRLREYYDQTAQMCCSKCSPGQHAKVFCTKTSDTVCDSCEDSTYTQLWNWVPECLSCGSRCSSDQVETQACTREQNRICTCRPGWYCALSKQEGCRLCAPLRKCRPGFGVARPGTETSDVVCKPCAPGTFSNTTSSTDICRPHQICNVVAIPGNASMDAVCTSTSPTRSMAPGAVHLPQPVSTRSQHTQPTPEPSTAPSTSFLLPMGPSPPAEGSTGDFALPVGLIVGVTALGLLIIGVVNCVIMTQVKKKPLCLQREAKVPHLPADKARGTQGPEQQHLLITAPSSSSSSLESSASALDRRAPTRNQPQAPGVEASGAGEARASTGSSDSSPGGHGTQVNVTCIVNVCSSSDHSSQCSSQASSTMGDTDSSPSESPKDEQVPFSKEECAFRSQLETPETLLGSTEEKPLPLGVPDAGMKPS

T2: Murine TNFR2 (mouse, UniProt P25119 23-474)
T2 construct: Expressed on transiently transfected HEK293 cells; also called mouse TNFR2; TNFR2(mu)
T2 sequence: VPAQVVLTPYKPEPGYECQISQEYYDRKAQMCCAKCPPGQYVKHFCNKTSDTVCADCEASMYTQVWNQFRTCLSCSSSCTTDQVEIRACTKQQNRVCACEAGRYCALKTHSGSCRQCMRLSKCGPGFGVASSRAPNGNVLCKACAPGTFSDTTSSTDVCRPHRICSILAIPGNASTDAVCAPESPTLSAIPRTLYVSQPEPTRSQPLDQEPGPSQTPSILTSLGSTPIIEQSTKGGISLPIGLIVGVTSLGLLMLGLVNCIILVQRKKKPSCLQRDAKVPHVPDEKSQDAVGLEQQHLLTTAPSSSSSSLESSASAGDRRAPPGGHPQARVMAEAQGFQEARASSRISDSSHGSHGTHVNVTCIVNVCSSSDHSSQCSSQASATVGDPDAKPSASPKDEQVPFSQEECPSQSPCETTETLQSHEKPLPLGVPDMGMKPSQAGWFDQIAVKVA

T3: Cynomolgus TNFR2 (Macaca fascicularis (cynomolgus monkey), UniProt P20333 26-461 (human entry))
T3 construct: Expressed on transiently transfected HEK293 cells; also called TNFR2-cyno; monkey TNFR2
T3 chain: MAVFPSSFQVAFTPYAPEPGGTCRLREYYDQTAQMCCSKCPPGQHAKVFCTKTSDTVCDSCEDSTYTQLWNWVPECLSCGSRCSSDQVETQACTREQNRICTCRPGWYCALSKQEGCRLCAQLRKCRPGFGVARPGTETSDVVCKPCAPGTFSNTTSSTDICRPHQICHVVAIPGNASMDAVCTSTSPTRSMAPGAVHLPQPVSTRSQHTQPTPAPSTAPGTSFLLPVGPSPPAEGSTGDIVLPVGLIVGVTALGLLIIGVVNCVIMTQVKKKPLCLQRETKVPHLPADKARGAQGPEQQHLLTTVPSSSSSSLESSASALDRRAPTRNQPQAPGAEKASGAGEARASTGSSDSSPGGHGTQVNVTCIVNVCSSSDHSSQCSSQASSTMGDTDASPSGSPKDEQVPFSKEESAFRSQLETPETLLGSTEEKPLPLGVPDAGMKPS

B1: VHH:C18-Fc-GpL (Fc fusion)
VHH: DVQLVESGGGSVQTGGSLTLSCAISGSTSERYCMGWFRQAPGREREGVAATSLTGRGAQFYADSVKGRFTISLDDAKNTLYLQMDSLRPDDTAVYYCAADVGFLCGYDSDNDPFYDWGQGTQVTVSS
notes: also called VHH-Fc-GpL variant of C18; not shown: The Fc domain, the C-terminal GpL reporter and the linkers or tags of the VHH-Fc-GpL construct; No entry gives the joined chain or says which Fc variant was used
B2: VHH:C36-Fc-GpL (Fc fusion)
VHH: HVQLVESGGGSVQAGGSLRLSCAASGFTFSSYYMSWVRQAPGKGLEWVSAIYSDDSDNYSDSVKGRFTISKDNAKNTLYLQMNSLKPEDTAMYYCAAIRIGTDQYKFWGQGTQVTVSS
notes: also called VHH-Fc-GpL format protein of C36; not shown: The Fc domain, the C-terminal GpL reporter and the linkers or tags of the VHH-Fc-GpL construct; No entry gives the joined chain or says which Fc variant was used
B3: VHH:C178-Fc-GpL (Fc fusion)
VHH: DVQLVESGGGLVHPGGSLRLSCAASGFTFSADDATWARQPPGKGLEWISTLYFDTEEKTYADSVKGRFIISRDIAKNTVYLQMNNLKPEDTGMYVCTATWAGGSLLRPASFGVWGQGTQVTVSS
notes: also called VHH-Fc-GpL format protein of C178; not shown: The Fc domain, the C-terminal GpL reporter and the linkers or tags of the VHH-Fc-GpL construct; No entry gives the joined chain or says which Fc variant was used
B4: VHH:C118-Fc-GpL (Fc fusion)
VHH: QVQLVESGGGSVQAGGSLRLSCAASGHTYRSNCMGWFRQAPGKEREGVAAMYTGTDWKYYADSVKGRFTISQDKAKNTLYLVMNNLKPDDTGVYYCAADFGFICGYDSDDDPYDAWGQGTQVTVSS
notes: also called VHH-Fc-GpL format protein of C118; not shown: The Fc domain, the C-terminal GpL reporter and the linkers or tags of the VHH-Fc-GpL construct; No entry gives the joined chain or says which Fc variant was used
B5: VHH:C74-Fc-GpL (Fc fusion)
VHH: DVQLVESGGGLVQSGGSLRLSCAASGFPFSSSDMTWVRQTSGSVFEWVSDINPDGQNTRYADSVKGRFIISRDNAKSTLYLQMDSLKTDDTAVYYCAADPGSSGGSLSYWGKGTLVTVSS
notes: also called VHH-Fc-GpL variant of C74; not shown: The Fc domain, the C-terminal GpL reporter and the linkers or tags of the VHH-Fc-GpL construct; No entry gives the joined chain or says which Fc variant was used
B6: 3xVHH:C188-Fc-GpL (Fc fusion, not shown: a dimerising Fc or GST; small tags and cut ends)
VHH: B1 VHH with M34L, A99E
notes: also called hexavalent 3×VHH-Fc-GpL construct of C188
B7: 3×VHH:C18-Fc-GpL (Fc fusion)
VHH: B1 VHH
notes: also called 3×VHH-Fc-GpL variant of C18; hexavalent format of C18; not shown: the listing has no entry for the 3xVHH-Fc-GpL format
B8: 3xVHH:C238-Fc-GpL (Fc fusion, not shown: a dimerising Fc or GST; small tags and cut ends)
VHH: QVQLVESGGGSVQPGGSLTLSCVDSGSAYLSYCMAWFRQAPGKEREGVAAIYYGGDSYYADSVKGRFTISQDHAKNTMYLQMNSLKPEDTAVYYCAADVGFICGYDSDNDPPNDWGQGTQVTVSS
notes: also called hexavalent 3×VHH-Fc-GpL construct of C238
B9: 3×VHH:C74-Fc-GpL (Fc fusion)
VHH: B5 VHH
notes: also called 3×VHH-Fc-GpL variant of C74; hexavalent format for C74; not shown: the listing has no entry for the 3xVHH-Fc-GpL format
B10: (68/69)-IgG1(N297A)-LC:GpL (antibody)
light: EVKLVPRQLDYKDDDDKELDVQMTQSPSSLSASVGDRVTITCKASQDINKFIAWYQQKPGKAPKLLIHYTSTLQPGIPSRFSGSGSGRDYTFTISSLQPEDIATYYCLQYGNLWTFGGGTKVEIKGSEIKRTVAAPSVFIFPPSDEQLKSGTASVVCLLNNFYPREAKVQWKVDNALQSGNSQESVTEQDSKDSTYSLSSTLTLSKADYEKHKVYACEVTHQGLSSPVTKSFNRGECLEKPTENNEDFNIVAVASNFATTDLDADRGKLPGKKLPLEVLKEMEANARKAGCTRGCLICLSHIKCTPKMKKFIPGRCHTYEGDKESAQGGIGEAIVDIPEIPGFKDLEPMEQFIAQVDLCVDCTTGCLKGLANVQCSDLLKKWLPQRCATFASKIQGQVDKIKGAGGD
heavy: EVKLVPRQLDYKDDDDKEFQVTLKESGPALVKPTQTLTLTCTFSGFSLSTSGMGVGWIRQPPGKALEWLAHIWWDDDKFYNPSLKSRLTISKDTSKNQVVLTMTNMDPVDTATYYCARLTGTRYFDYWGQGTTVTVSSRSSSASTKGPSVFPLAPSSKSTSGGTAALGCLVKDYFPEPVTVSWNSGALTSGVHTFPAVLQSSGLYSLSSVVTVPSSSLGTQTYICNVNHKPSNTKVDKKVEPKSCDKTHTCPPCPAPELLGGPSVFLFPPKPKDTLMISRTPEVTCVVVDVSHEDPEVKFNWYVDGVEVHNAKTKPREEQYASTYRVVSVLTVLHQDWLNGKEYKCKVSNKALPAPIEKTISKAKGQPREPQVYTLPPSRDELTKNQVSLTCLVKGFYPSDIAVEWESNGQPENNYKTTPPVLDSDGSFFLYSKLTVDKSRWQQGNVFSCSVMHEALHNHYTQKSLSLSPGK
notes: Gaussia princeps luciferase (GpL) fused to the light chain; copies: 2 + 2
B11: C29-IgG1(N297A)-LC:GpL (antibody)
light: EVKLVPRQLDYKDDDDKELDVVMTQTPLSLPVSLGDQASISCRASQSLVHSNGNTYLQWYLQKPGQSPKLLIYKVSNRFSGVPDRFSGSGSGTDFTLKISRVEAEDLGVFFCSQSTHVPFTFGSGTKLEIKGSEIKRTVAAPSVFIFPPSDEQLKSGTASVVCLLNNFYPREAKVQWKVDNALQSGNSQESVTEQDSKDSTYSLSSTLTLSKADYEKHKVYACEVTHQGLSSPVTKSFNRGECLEKPTENNEDFNIVAVASNFATTDLDADRGKLPGKKLPLEVLKEMEANARKAGCTRGCLICLSHIKCTPKMKKFIPGRCHTYEGDKESAQGGIGEAIVDIPEIPGFKDLEPMEQFIAQVDLCVDCTTGCLKGLANVQCSDLLKKWLPQRCATFASKIQGQVDKIKGAGGD
heavy: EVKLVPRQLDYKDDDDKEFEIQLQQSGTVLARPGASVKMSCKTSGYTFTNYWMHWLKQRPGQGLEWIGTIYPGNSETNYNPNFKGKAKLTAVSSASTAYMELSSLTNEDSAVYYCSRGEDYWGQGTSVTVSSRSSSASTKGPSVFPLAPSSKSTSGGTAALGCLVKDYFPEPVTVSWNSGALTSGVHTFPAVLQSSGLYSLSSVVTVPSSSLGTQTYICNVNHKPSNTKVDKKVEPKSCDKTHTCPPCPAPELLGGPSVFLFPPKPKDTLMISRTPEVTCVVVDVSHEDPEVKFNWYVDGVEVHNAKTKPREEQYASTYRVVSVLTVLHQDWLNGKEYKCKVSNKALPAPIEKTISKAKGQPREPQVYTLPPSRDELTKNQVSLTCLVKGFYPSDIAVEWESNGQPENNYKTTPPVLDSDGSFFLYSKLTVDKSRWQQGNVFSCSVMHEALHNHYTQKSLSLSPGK
notes: copies: 2 + 2

What is called Kd is a measure of binding affinity in units of concentration.

One assay has as its target T4, African green monkey TNFR2 (Chlorocebus sabaeus (African green …)).
T4 construct: whole, on cells
Nature of the assay: equilibrium binding of VHH-Fc-GpL to cells expressing African green monkey TNFR2, 37 C; column head Affinity (ng/ml). As to the method: (§1) Specific binding (open circles) was obtained by subtraction of the non-specific binding values (Hek293 cells—crosses) from the binding values for transfectants expressing human TNFR2 (total binding—closed circles). Specific binding was analyzed with the “nonlinear regression to a one-site specific binding curve” function of the GraphPad Prism5 software.
(§2) The equivalent experiment was also performed using TNFR2 from different species, namely from Mus musculus (mouse), Macaca fascicularis (cynomolgus monkey), and Chlorocebus sabaeus (African green monkey) to study the ability of the VHH regions to bind to TNFR2 from different species. The ability to cross react to TNFR2 from different species can be helpful in allowing the antibodies to be studied in various models before assessment in human patients.
Regarding B1, the dissociation constant Kd stood at 0.06 mg/L.

B2 displayed a Kd of 0.08 mg/L.

Take B3: the dissociation constant (Kd) amounted to 0.06 mg/L.

With B4, the dissociation constant (Kd) worked out at 0.1 mg/L.

B5 displayed a Kd of 0.06 mg/L.

A further assay has as its target T1, Human TNFR2. In words: binding of 3xVHH-Fc-GpL to HEK293 cells transiently transfected with TNFR2; empty-vector cells as unspecific binding.
As to B6, binding was put at a Kd of 0.005 mg/L.

The molecule B7 had a dissociation constant (Kd) of 0.006 mg/L.

B8 gave a Kd of 0.008 mg/L.

For the molecule B9, binding was put at a Kd of 0.035 mg/L.

A further assay concerns the target T2, Murine TNFR2. In words: equilibrium binding of VHH-Fc-GpL to cells expressing mouse TNFR2, 37 C. As to the method:
as §1, §2
In the case of B2, the binding result was “no binding”.

For the molecule B3, the binding result is on record as “no binding”.

In the case of B4, the binding result was “no binding”.

As to B5, the binding result is “no binding”.

A further assay concerns the target T1, Human TNFR2. Nature of the assay: equilibrium binding of the GpL fusion protein to HeLa-TNFR2 cells, 37 °C; unspecific binding on HeLa cells subtracted; cell-bound luciferase. As to the method: FIG. 11—Binding properties of TNFR2-specific antibodies. (A) Equilibrium binding of the indicated anti-TNFR2 antibody GpL fusion proteins to cell expressed human TNFR2 at 37° C. (B) HeLa-TNFR2 cells were pretreated with the indicated amounts of anti-TNFR2 antibodies or remained untreated. […] Binding of the various constructs to untransfected HeLa cells was analyzed to obtain unspecific binding values.
Affinity of TNFR2-specific antibodies and antibody variants were also evaluated with HeLa cells and HeLa cells stably expressing human TNFR2. HeLa and HeLa-TNFR2 cells were seeded out in 24-well plates. Next day, the cells were challenged with the indicated concentrations of GpL-labelled TNFR2 antibodies for 1 hour at 37° C. To eliminate the unbound antibodies, the cells were washed 10 times with ice-cold PBS. The cells were then scratched and collected in 50 μl of medium (RPMI, 0.5% FCS) and transferred to black 96-well plates for measurement as mentioned above. The specific binding of different TNFR2-specific antibodies/antibody variants was calculated by subtracting the unspecific binding (values obtained from HeLa cells) from total binding (obtained from HeLa-TNFR2). The resulting values were fitted using the non-linear regression analysis option of GraphPad Prism 5.
Consider B10, for which the Bmax is 1130 kRLU and the affinity, expressed as Kd, was 0.044 mg/L.

Molecule B11 showed a Bmax of 250 kRLU and an equilibrium dissociation constant (Kd) of 0.8 mg/L.

A further assay concerns the target T1, Human TNFR2. In words: equilibrium binding of 3xVHH-Fc-GpL to HEK293 cells expressing human TNFR2 (panel head Hek-293-TNFR2-human), 37 °C.
B6 came in with a Kd of 0.003 mg/L.

With B7, the Kd was 0.001 mg/L.

B8 came in with a Kd of 0.006 mg/L.

For B9, the Kd was found to be 0.001 mg/L.

The target of another assay is T2, Murine TNFR2. In words: equilibrium binding of 3xVHH-Fc-GpL to HEK293 cells expressing murine TNFR2 (panel head Hek-293-TNFR2-murine), 37 °C.
B6 gave a Kd of 0.07 mg/L.

B7 had a Kd of 0.18 mg/L.

For B8, the dissociation constant Kd came out at 0.1 mg/L.

The target in a further assay is T3, Cynomolgus TNFR2. In words: equilibrium binding of VHH-Fc-GpL to cells expressing cynomolgus TNFR2, 37 C; column head Affinity (ng/ml). As to the method: as §1, §2
B1 registered a Kd of 0.05 mg/L.

The target in another assay is T3, Cynomolgus TNFR2. In words: equilibrium binding of VHH-Fc-GpL to cells expressing cynomolgus TNFR2, 37 C. As to the method:
as §1, §2
In the case of B3, the binding result was “no binding”.

Consider B5, for which the binding result is recorded as “no binding”.

The next assay has as its target T1, Human TNFR2. In words: equilibrium binding of VHH-Fc-GpL to cells expressing human TNFR2, 37 °C; HEK293 cells as unspecific binding; one-site fit of specific binding.
The molecule B1 gave a Kd of 0.23 mg/L.

With B2, binding was put at a Kd of 3.2 mg/L.

With B3, the Kd stood at 0.9 mg/L.

B4 had a Kd of 0.13 mg/L.

The molecule B5 returned a Kd of 0.08 mg/L.
